Test system: IL-2 dependant BT-2 T cell line
Assay: Residual r-BoIL-2 bioactivity in dry cow gland secretions (BT-2 bioassay)
Assay type: in vivo, bovine
Description: FIGS. 4(A-B): Measurement of Residual r-BoIL-2 Bioactivity in Secretions from Dry Cow Glands Infused with r-BolL-2
Secretions from 4 quarters (4 different cows) are infused with 1 mg of r-BoIL-2 at drying-off (2 quarters) or not treated with r-BoIL-2 (2 quarters). Dry gland secretions are collected at time 0,72,144 and 240 hours after infusion. All samples shown are from the 72 hour time point and are diluted 1:50 and 1:200, and assayed for amount of biologically active r-BoIL-2 using the IL-2 dependant BT-2 T cell line, panel B. The BT-2 cell line is a bovine T cell line which requires IL-2 for growth. By measuring the degree of proliferation of this cell line, one directly measures the amount of biologically active IL-2 in a test media. Data is expressed as a mean ^3 H-thymidine incorporation +/- S.D. of triplicate samples of BT-2 cells for each of the individual numbered animals. […] A standard assay of various concentrations of r-BoIL-2 in 2% dry secretions is also shown in panel A as a positive control.
To specifically study the presence of cytokines after a single intramammary infusion into dry cows, […] from four different cows, are infused with 1 mg r-BoIL-2 at dry-off. […] Secretions from dry cow quarters treated with 1 mg of r-BoIL-2 are collected at 72, 144 and 240 hours after dry cow treatment. As with the milk, a 1:50 dilution of dry secretion samples is made and these solutions assayed by the bioassay using BT-2 and compared to r-BoIL-2 diluted in media.

B1: recombinant bovine interleukin-2 (protein, UniProt P05016 21-155, looked up)
Interleukin-2: APTSSSTGNTMKEVKSLLLDLQLLLEKVKNPENLKLSRMHTFDFYVPKVNATELKHLKCLLEELKLLEEVLNLAPSKNLNPREIKDSMDNIKRIVLELQGSETRFTCEYDDATVNAVEFLNKWITFCQSIYSTMT
notes: recombinant bovine interleukin-2, obtained from IMMUNEX Corp. Seattle, WA
1 mg intramammary at dry-off, 72 hours after infusion, 1:50 dilution
  detectable r-BoIL-2 bioactivity in dry gland secretions: less than 0.024 .eta.g/ml
1 mg intramammary at drying-off, 72, 144, 240 hours
  residual r-BoIL-2 bioactivity in secretions: No r-BoIL-2 activity could be detected at any time point
After 3 days, FIG. 4
  biologically active IL-2 in dry cow secretions: no biologically active IL-2 is detected after 3 days

Reference: US5336488A, “Method of treating or preventing mastitis in animals with involuting mammary glands by administering recombinant cytokines” (American Cyanamid Company, priority 1992, dated 1994)
